Assays:
[1] = biological target: HMGB1 in DNA immune complexes of human lupus plasma (human) (UniProt P09429); assay: cell-based or functional assay
[2] = biological target: HMG1 purified from bovine (calf) thymus (bovine) (UniProt P10103); assay: cell-based or functional assay
Chain of HMG1 purified from bovine (calf) thymus (bovine) (P10103 2-215 limits assumed): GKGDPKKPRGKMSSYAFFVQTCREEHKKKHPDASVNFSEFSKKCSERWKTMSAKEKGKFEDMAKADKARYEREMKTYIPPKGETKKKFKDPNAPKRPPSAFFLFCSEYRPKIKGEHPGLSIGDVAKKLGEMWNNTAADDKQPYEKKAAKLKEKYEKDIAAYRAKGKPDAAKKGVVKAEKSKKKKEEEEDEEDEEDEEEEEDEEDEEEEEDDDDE

Chain of HMGB1 in DNA immune complexes of human lupus plasma (human) (P09429 whole entry, one chain of several): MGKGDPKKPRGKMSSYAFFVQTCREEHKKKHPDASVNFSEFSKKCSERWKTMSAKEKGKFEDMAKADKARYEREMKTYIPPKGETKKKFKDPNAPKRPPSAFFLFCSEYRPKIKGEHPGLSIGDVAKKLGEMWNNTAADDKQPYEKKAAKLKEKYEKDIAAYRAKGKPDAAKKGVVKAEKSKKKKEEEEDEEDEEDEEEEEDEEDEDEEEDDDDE

decrease in IFIT1 mRNA in human PBMC stimulated with 20% lupus plasma [1]: 75%
IFN-a release from mouse bone marrow cells, HMGB/CpG-A mediated enhanced TLR9 signaling [2]: > 95%
Substance: RAGE-Fc fusion protein (species not stated)

From patent US20080311122A1, “Antagonists of Hmgb1 and/or Rage and Methods of Use Thereof” (Medimmune, LLC, priority 2005, published 2008)
